Values after ≈ are worked out from the molar mass of the structure shown. Where a SMILES comes first, the peptide text is derived from it. Where no end group is shown, it is not given here. The star is where a group is joined. Paclitaxel(2'-O-succinyl) = CC(=O)O[C@H]1C(=O)[C@@]2(C)[C@H]([C@H](OC(=O)c3ccccc3)[C@]3(O)C[C@H](OC(=O)[C@H](OC(=O)CCC(=O)*)[C@@H](NC(=O)c4ccccc4)c4ccccc4)C(C)=C1C3(C)C)[C@]1(OC(C)=O)CO[C@@H]1C[C@@H]2O; FITC = O=C1OC2(c3ccc(O)cc3Oc3cc(O)ccc32)c2ccc(NC(=S)*)cc21; Acp = not defined here
Columns and labels:
[1] = literature values; cited from earlier work
[2] = Solubility of drug and drug-peptide conjugate in water (supersaturated solution, HPLC standard curve); assay type: physicochemical
Procedure: The peak areas of the series standard solutions were detected via HPLC (mobile phase: 0.065% TFA water + 0.05% TFA; chromatographic column: YMC-TriartC18; wavelength: 220 nm), so as to construct a concentration-peak area standard curve, as shown in FIG. 13. In FIG. 13, the horizontal axis represents the concentration, and the longitudinal axis represents the peak area.
The peak area of the sample was detected via HPLC, and the solubility value of the sample in water was calculated by the concentration-peak area standard curve. Table 5 Solubility Value of Sample in Water

[3] = biological target: c-Met positive cell MKN-45 (Homo sapiens, UniProt P08581); experiment: Flow cytometry detection of binding of FITC-labelled peptide to c-Met positive cell MKN-45; assay type: cell-based; details: for binding affinity to c-Met positive cell MKN45 compared with P1-AI: alanine scanning, FITC-labelled peptides 10 µM to 0.625 µM, FIG. 12; for affinity to c-Met positive cell MKN45 relative to CM7-1: comparison of EC50 with CM7-1, FITC-labelled peptides tested; for binding to c-Met positive cell MKN45, dose dependence: different peptide concentrations, flow cytometry
c-Met positive cell MKN-45, sequence (P08581 25-1390): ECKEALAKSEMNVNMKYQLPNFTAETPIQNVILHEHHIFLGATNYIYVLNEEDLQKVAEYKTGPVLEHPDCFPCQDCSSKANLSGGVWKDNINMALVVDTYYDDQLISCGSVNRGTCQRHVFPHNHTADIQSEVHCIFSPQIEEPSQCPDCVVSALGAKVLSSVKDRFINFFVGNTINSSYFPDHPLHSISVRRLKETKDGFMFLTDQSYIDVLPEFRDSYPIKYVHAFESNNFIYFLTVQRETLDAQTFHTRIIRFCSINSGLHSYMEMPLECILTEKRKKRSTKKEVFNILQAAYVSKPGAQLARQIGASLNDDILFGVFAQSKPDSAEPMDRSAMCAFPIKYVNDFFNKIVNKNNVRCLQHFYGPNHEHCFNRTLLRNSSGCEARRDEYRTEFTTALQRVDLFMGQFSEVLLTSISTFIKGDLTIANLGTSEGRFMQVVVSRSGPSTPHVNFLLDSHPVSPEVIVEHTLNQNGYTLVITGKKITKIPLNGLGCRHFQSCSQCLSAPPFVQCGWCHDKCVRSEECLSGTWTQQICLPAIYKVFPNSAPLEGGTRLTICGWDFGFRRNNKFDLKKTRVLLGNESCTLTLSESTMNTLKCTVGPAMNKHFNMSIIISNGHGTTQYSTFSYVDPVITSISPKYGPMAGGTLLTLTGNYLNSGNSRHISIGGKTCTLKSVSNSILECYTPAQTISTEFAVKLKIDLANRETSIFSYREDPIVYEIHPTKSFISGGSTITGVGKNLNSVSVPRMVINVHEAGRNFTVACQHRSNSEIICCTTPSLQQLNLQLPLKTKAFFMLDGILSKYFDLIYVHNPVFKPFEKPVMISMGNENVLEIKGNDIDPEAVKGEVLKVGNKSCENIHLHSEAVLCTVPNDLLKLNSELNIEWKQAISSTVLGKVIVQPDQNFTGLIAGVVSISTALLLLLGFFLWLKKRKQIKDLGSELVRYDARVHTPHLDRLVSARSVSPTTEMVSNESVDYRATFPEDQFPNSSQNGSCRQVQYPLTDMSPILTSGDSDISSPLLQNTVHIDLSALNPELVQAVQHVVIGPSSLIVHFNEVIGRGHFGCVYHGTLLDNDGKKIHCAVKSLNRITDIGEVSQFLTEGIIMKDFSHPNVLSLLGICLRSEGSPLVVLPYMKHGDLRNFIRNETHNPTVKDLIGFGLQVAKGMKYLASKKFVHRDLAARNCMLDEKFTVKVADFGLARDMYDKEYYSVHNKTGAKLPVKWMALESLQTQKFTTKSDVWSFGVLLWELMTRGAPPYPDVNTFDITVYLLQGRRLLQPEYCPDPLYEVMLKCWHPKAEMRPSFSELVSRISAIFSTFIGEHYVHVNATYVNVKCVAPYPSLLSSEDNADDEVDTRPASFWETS
Procedure: MKN 45 cells cultured in a 1640 culture solution (Nanjing Senbeijia Biotechnology Co., Ltd.) were collected, and washed twice with pre-cooled PBS. 1 mL of 1% BSA solution was added into the washed cells, and then the above mixed system was placed on a rotary mixer (Lichen Technology Co., Ltd.) and incubated for 30 min at 4°C. Different concentrations of FITC-P1-AI, FITC-CM7-1, FITC-CM7-1.1, FITC-CM7-1.2, FITC-CM7-1.3, FITC-CM7-1.4, FITC-CM7-1.5 and FITC-CM7-1.6 peptide solutions were respectively added in the dark to obtain multiple groups, and then the mixtures were placed on the rotary mixer and incubated for 1 h at 4°C in the dark. After the incubation was completed, the mixed system of the cells was centrifuged for 5 min at 800 rpm, and then supernatant was discarded. The cells were washed twice with pre-cooled PBS, and the concentration of the cells was adjusted to 1×10^6 cells/mL using PBS. 3 parallel replicate wells were set up for cells in each group, with 0.5 mL prepared per sample; and a flow cytometer was used to detect the binding of the peptide to c-Met positive cell MKN-45, EC50 data and a binding curve were generated. […] Table 2 Binding affinity of peptide to MKN-45
MKN-45 cells cultured in a 1640 culture solution were collected, and washed twice with pre-cooled PBS 1 mL of 1% BSA solution was added into the washed cells, and then the above mixed system was placed on a rotary mixer and incubated for 30-60 min at 4°C. 10 µM of FITC-P1-AI peptide solution and FITC-CM7-1 were respectively added in the dark to form two groups, and the above mixed systems were placed on the rotary mixer and incubated for 1 h at 4°C in the dark. After the incubation was completed, the mixed system of the cells was centrifuged for 5 min at 800 rpm, and then supernatant was discarded. The cells were washed 1-2 times with pre-cooled PBS, and then the concentration of the washed cells was adjusted to 1×10^6 cells/mL by using PBS. 3 parallel replicate wells were set up for cells in each group, with 0.5 mL prepared per sample; and a flow cytometer was used to detect the binding of the peptide to c-Met positive cells.
The MKN-45 cells cultured in a 1640 culture solution were collected, and washed twice with pre-cooled PBS. […] After the incubation was completed, the mixed system of the cells was centrifuged for 5 min at 800 rpm, and then supernatant was discarded. The cells were washed 1-2 times with pre-cooled PBS, and then the concentration of the washed cells was adjusted to 1×10^6 cells/mL by using PBS. 3 parallel replicate wells were set up for cells in each group, with 0.5 mL prepared per sample; and a flow cytometer was used to detect the binding of the peptide to the c-Met positive cell MKN-45. […] Table 4 Sequences of Peptides

[4] = test system: MKN-45 subcutaneous xenograft tumor; experiment: Living imaging of tissue distribution in MKN-45 subcutaneous xenograft tumor mice; assay type: in vivo, nude mice; details: 5 mg/kg via tail vein, tumor about 400 mm^3, FIG. 11
Procedure: In MKN-45 subcutaneous xenograft tumor mice (nude mice were purchased from Changzhou Kavens Laboratory Animal Co., Ltd), 5X10^6 MKN45 cells were subcutaneously implanted into nude mice; and when the volume of the tumor was about 400 mm^3, 5 mg/kg Cy5-P1-AI was injected via a tail vein, and its tissue distribution was analyzed using a living imaging instrument. […] In the figure, a circle area is a tumor site.

[5] = Solubility detection of peptide in ultrapure water (visual); assay type: physicochemical
Procedure: 13.4 mg of CM7-1 and 15 mg of P1-AI were respectively weighed and dissolved using ultrapure (UP) water (prepared using Youpu Pure Water/Ultrapure Water Manufacturing System (UPR-II-10T)).

[6] = test system: human hepatic stellate cell LX-2; experiment: Specificity: flow cytometry binding of peptide to LX-2 cells that barely express c-Met; assay type: cell-based; details: concentration of up to 10 µM, cells barely expressing c-Met, FIG. 8
Procedure: Human hepatic stellate cells LX-2 cultured in a 1640 culture solution were collected, and washed twice with pre-cooled PBS. 1 mL of 1% BSA solution was added into the washed cells, and then the above mixed system were placed on a rotary mixer and incubated for 30 min at 4°C. 10 µM of FITC-P1-AI peptide solution and FITC-CM7-1 were respectively added in the dark to form two groups, and the above mixed systems were placed on the rotary mixer and incubated for 1 h at 4°C in the dark. After the incubation was completed, the mixed system of the cells was centrifuged for 5 min at 800 rpm, and then supernatant was discarded. The cells were washed twice with pre-cooled PBS, and the concentration of the cells was adjusted to 1×10^6 cells/mL using PBS. 3 parallel replicate wells were set up at concentrations of 1 µM, 5 µM and 10 µM for cells in each group, with 0.5 mL prepared per sample; and a flow cytometer was used to detect the binding of the peptide to LX-2 cells.

[7] = biological target: T1, c-Met on c-Met positive human gastric cancer cell MKN-45 (human, UniProt P08581 25-1390); experiment: flow cytometry, FITC-peptide on c-Met positive MKN-45 cells
T1 construct: whole, on cells; also called hepatocyte growth factor receptor; HGFR
T1 sequence (P08581 25-1390): as above

c-Met protein = c-Met protein (UniProt P08581 25-932, limits assumed); experiment: microscale thermophoresis (MST), FITC-peptide with titrated c-Met protein
c-Met protein, sequence (P08581 25-932 limits assumed): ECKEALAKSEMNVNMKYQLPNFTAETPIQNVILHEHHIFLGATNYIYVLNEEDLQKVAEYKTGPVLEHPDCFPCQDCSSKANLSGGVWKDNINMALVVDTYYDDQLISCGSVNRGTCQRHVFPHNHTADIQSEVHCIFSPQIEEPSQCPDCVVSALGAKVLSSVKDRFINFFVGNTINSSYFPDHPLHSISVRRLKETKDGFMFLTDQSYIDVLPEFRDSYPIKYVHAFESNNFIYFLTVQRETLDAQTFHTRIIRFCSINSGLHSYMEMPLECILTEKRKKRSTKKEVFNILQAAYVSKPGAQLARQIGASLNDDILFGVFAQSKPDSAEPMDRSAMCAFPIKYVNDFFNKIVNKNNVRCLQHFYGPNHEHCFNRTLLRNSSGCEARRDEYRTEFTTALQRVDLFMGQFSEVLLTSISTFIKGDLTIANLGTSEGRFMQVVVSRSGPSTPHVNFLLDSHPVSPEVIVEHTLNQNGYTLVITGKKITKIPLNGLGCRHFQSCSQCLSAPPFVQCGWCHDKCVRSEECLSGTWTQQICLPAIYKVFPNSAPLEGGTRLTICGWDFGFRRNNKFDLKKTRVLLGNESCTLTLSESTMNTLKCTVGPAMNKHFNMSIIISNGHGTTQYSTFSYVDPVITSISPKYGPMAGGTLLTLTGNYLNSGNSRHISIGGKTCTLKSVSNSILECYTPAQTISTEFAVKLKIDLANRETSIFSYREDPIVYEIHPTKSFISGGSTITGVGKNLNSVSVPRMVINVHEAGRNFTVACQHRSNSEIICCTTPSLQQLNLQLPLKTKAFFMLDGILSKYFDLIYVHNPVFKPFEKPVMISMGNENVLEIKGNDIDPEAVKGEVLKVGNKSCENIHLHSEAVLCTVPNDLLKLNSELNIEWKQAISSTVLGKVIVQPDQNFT

[8] = biological target: T1, c-Met on c-Met positive human gastric …; experiment: flow cytometry, FITC-peptide (0.625-10 µM) on MKN-45 cells

CCc1c2c(nc3ccc(OCC(=O)N4CCCCC4)cc13)-c1cc3c(c(=O)n1C2)COC(=O)[C@]3(O)CC [7-ethyl-10-[2-oxo-2-(piperidinyl)ethoxy]camptothecin]
solubility in water [1]: about 6.22 µg/mL

CC[C@@]1(O)C(=O)OCc2c1cc1n(c2=O)Cc2cc3ccccc3nc2-1 [CPT, camptothecin]
solubility at 15 min ([2]; thermodynamic from solid): 0.084 µg/mL (≈ 0.241 µM)

CC(=O)O[C@@]12CO[C@@H]1C[C@H](O)[C@@]1(C)C(=O)[C@H](O)C3=C(C)[C@@H](OC(=O)[C@H](OC(=O)CCC(=O)N[C@@H](CCCNC(=N)N)C(=O)N[C@@H](CO)C(=O)N4CCC[C@H]4C(=O)N[C@@H](Cc4ccc(O)cc4)C(=O)N[C@@H](C)C(=O)N[C@@H](CC(N)=O)C(=O)N[C@@H](CO)C(=O)O)[C@@H](NC(=O)OC(C)(C)C)c4ccccc4)C[C@@](O)([C@@H](OC(=O)c4ccccc4)[C@H]21)C3(C)C [DOC-P1-AI]
Solubility increasing fold of drug-peptide conjugate compared with drug [2]: 1.62×10^5 fold

CC(=O)O[C@H]1C(=O)[C@@]2(C)[C@H]([C@H](OC(=O)c3ccccc3)[C@]3(O)C[C@H](OC(=O)[C@H](OC(=O)CCC(=O)N[C@@H](CCCNC(=N)N)C(=O)N[C@@H](CO)C(=O)N4CCC[C@H]4C(=O)N[C@@H](Cc4ccc(O)cc4)C(=O)N[C@@H](C)C(=O)N[C@@H](CC(N)=O)C(=O)N[C@@H](CO)C(=O)O)[C@@H](NC(=O)c4ccccc4)c4ccccc4)C(C)=C1C3(C)C)[C@]1(OC(C)=O)CO[C@@H]1C[C@@H]2O [PTX-P1-AI] ({Paclitaxel(2'-O-succinyl)}-RSPYANS-OH; N-terminus assumed)
Solubility increasing fold of drug-peptide conjugate compared with drug [2]: 46.33 fold

ASPYANS [P1-AI-1]
binding affinity to c-Met positive cell MKN45 compared with P1-AI [3]: reduced

Cy5-RSPYANS [Cy5-P1-AI]
tissue distribution by living imaging [4]: enriched in cancer sites highly expressing c-Met

DAIIANN [CM7-1.2]
affinity to c-Met positive cell MKN45 relative to CM7-1 [3]: significantly increased affinity
binding to c-Met positive cell MKN45, dose dependence [3]: dose-dependent

DQAIANN [CM7-1.3]
affinity to c-Met positive cell MKN45 relative to CM7-1 [3]: significantly increased affinity
binding to c-Met positive cell MKN45, dose dependence [3]: dose-dependent

DQIAANN [CM7-1.4]
affinity to c-Met positive cell MKN45 relative to CM7-1 [3]: increased affinity

DQIIANA [CM7-1.6]
affinity to c-Met positive cell MKN45 relative to CM7-1 [3]: increased affinity

DQIIANN [CM7-1, DQIIANN, reference compound]
state in water ([5]; concentration 6 mM): completely cloudy state

FITC-RSPYANS (not fully specified; FITC label) [FITC-P1-AI]
binding to LX-2 cells [6]: barely binds

RAPYANS [P1-AI-2]
binding affinity to c-Met positive cell MKN45 compared with P1-AI [3]: reduced

RSAYANS [P1-AI-3]
binding affinity to c-Met positive cell MKN45 compared with P1-AI [3]: reduced

RSPAANS [P1-AI-4]
binding affinity to c-Met positive cell MKN45 compared with P1-AI [3]: increased binding affinity
binding affinity to c-Met compared with CM7-1 ([3]; conclusion of Example 9): superior

RSPYANS [P1-AI, RSPYANS]
state in water ([5]; concentration 19 mM): clear solution

B1: FITC-CM7-1 (FITC-DQIIANN) (peptide)
peptide: {FITC}-DQIIANN
notes: tested as the FITC-labelled form; Molecular weight 1289.36
EC50 [7]: 9.51 µM
Kd (c-Met protein): 1.27 µM

{FITC}-DQIIANA (Alanine variant of CM7-1 at position 7) [FITC-CM7-1.6 (FITC-DQIIANA)]
EC50 [7]: 5.05 µM

{FITC}-DQIAANN (Alanine variant of CM7-1 at position 4) [FITC-CM7-1.4 (FITC-DQIAANN)]
EC50 [7]: 5.37 µM

{FITC}-DAIIANN (Alanine variant of CM7-1 at position 2) [FITC-CM7-1.2 (FITC-DAIIANN)]
EC50 [7]: 1.88 µM

{FITC}-DQIIAAN (Alanine variant of CM7-1 at position 6) [FITC-CM7-1.5 (FITC-DQIIAAN)]
EC50 [7]: 15.2 µM

{FITC}-AQIIANN (Alanine variant of CM7-1 at position 1) [FITC-CM7-1.1 (FITC-AQIIANN)]
EC50 [7]: 2.07 µM

{FITC}-DQAIANN (Alanine variant of CM7-1 at position 3) [FITC-CM7-1.3 (FITC-DQAIANN)]
EC50 [7]: 0.0456 µM

B2: FITC-P1-AI (FITC-RSPYANS) (peptide)
peptide: {FITC-Acp}-RSPYANS
modifications: reading uncertain
notes: Synthetic 7-mer made by solid-phase synthesis; Molecular weight 1296.36
Kd (c-Met protein): 0.0411 µM
fold increase of affinity against CM7-1 (c-Met protein): 30.9 fold

{FITC}-ASPYANS (Alanine variant of P1-AI at position 1) [FITC-P1-AI-1 (FITC-ASPYANS)]
binding result [8]: binds

B3: FITC-P1-AI-6 (FITC-RSPYAAS) (peptide)
peptide: {FITC}-RSPYAAS
notes: Alanine variant of P1-AI at position 6; also called P1-Al-6
binding result [8]: binds

{FITC}-RSPAANS (Alanine variant of P1-AI at position 4) [FITC-P1-AI-4 (FITC-RSPAANS)]
binding result [8]: binds

{FITC}-RAPYANS (Alanine variant of P1-AI at position 2) [FITC-P1-AI-2 (FITC-RAPYANS)]
binding result [8]: binds

{FITC}-RSAYANS (Alanine variant of P1-AI at position 3) [FITC-P1-AI-3 (FITC-RSAYANS)]
binding result [8]: binds

Reference: EP4725955A1, “PEPTIDE TARGETING C-MET, PHARMACEUTICAL COMPOSITION COMPRISING SAID PEPTIDE AND USE THEREOF” (Nanjing Anji Biotechnology Co., Ltd., priority 2023, dated 2025)
